Paper PMC6702053 (Developmental cell, 2019)
Numbering of substitutions follows the chain as printed.

Columns and labels:
Test in all cases: pull-down
[1] = target: T1, GST-tagged wild-type PI31 (GST-PI31-WT) (Drosophila melanogaster, UniProt Q9V637 1-270)
T1 sequence (looked up): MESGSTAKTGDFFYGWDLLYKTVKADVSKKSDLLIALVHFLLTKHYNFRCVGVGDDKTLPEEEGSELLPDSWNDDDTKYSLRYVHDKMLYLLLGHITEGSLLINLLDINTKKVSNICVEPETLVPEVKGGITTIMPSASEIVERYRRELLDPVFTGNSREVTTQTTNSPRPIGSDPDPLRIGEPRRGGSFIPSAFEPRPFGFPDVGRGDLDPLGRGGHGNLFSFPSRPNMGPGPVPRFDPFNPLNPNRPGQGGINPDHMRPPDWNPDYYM

[2] = target: T2, GST-PI31-S168E (phospho-mimetic mutant) (Drosophila melanogaster, UniProt Q9V637 1-270, S168E)
T2 sequence (looked up): T1 sequence (looked up) with S168E

[3] = target: T3, GST-PI31-S168D (phospho-mimetic mutant) (Drosophila melanogaster, UniProt Q9V637 1-270, S168D)
T3 sequence (looked up): T1 sequence (looked up) with S168D

Measured: binding result

B1: recombinant FLAG-dDYNLL1 expressed in E. coli (natural protein, Drosophila melanogaster, UniProt Q24117 1-89, looked up)
chain: MSDRKAVIKNADMSEEMQQDAVDCATQALEKYNIEKDIAAYIKKEFDKKYNPTWHCIVGRNFGSYVTHETRHFIYFYLGQVAILLFKSG
binds: [1] | [2] | [3]
